Data from publication PMC11040149.

Molecular target: RNA ligase from Palaeococcus pacificus (PpaRnl), wild-type (Palaeococcus pacificus)
Assay: SEC

- stoichiometry N: 2
Substance: RNA ligase from Palaeococcus pacificus (PpaRnl), wild-type (enzyme)
